This note sets out measurements from publication PMC3864023.

The target of one data set is ParC R564D;ParE (Escherichia coli;Escherichia coli, UniProt P0AFI2;P20083 1-752;1-630, R564D|). Briefly: fluorescence anisotropy. (In general: Fluorescence polarisation rises when a labelled molecule tumbles more slowly, as on binding a larger partner.)
Another data set concerns the target ParC WT;ParE (Escherichia coli;Escherichia coli, UniProt P0AFI2;P20083 1-752;1-630, |). The experiment in a line: fluorescence anisotropy.

B1: 45mer duplex with strong topo II site, FAM (dsDNA)
DNA 1: GCCTATCCGAGGATGACGATGCGCGCATCGTCATACAGCGAATGG
DNA 2: CCATTCGCTGTATGACGATGCGCGCATCGTCATCCTCGGATAGGC
As to B1, the Kd in the data set with ParC R564D;ParE was 15 3; with ParC WT;ParE it was 25 5.
